Self-cleavage data for 167 variants are collected here from the RNAGym collection of RNA variant scans (doi:10.7554/elife.80360).

The chains are these.
B1: HDV Ribozyme (parent)
chain: GGCCGGCAUGGUCCCAGCCUCCUCGCUGGCGCCGGCUGGGCAACAUUCCGAGGGGACCGUCCCCUCGGUAAUGGCGAAUGGGACCCA

The variants in this data set derive from B1. Briefly: self-cleavage, relative activity (ratio to wild type); higher = more cleavage; co-transcriptional.
As for U46G C64G, the self-cleavage was 0.525. For G38A C86A the value was 0.247. Then G50A U60G, with 0.514.

For U46G C62U, the self-cleavage turned out to be 0.811.

For G68U U69G, the self-cleavage was 0.773. For C63A G82U the value was 0.467. Then G28C U37A, with 0.229. In the case of U12G C62A, the self-cleavage turned out to be 1.06. As for C58U C85G, the self-cleavage came to 1.07.

For the variant C4G C66A, the self-cleavage worked out at 0.369. Then U27C U79G, with 0.32; and G10U C21U, with 0.0532. Regarding A43U G50C, the self-cleavage was determined as 0.492. Then G31C G35A, with 0.16; and U47G G50C, with 0.831; and C33U G74A, with 0.277. As to U20C A78G, the self-cleavage is 0.0755.

On to G6C C36G, for which the self-cleavage turned out to be 0.158. Turning to G10A C66A, the self-cleavage amounted to 0.82. Consider G25U U46G, for which the self-cleavage came out at 0.199. On to G59C C85G, for which the self-cleavage turned out to be 0.955. Then G10U C26U, with 1.13; and C44A U65A, with 0.95; and G2A C19G, with 0. For U23A A51C the value was 0.731. For G55U G76U the value was 0.993; for U47G C66U, 1.23; for G38U U60C, 0.374. Regarding C4G C15U, the self-cleavage turned out to be 0.277. For G35U U37A the value was 0.155; for G39U C41U, 0.966; for A8U A45C, 0.166. Then C32A C86A, with 0.356. U72G G76A: the self-cleavage amounted to 0.743.

On to U27A C57U, for which the self-cleavage turned out to be 1.01. For U46G C61U the value was 0.332.

As for C13U G82U, the self-cleavage worked out at 0.359. Then G6C A87G, with 0.288; and G53A C64A, with 0.639. For C14G C66A the value was 0.665; for G25A C58U, 0.248.

With G10A C24A, the self-cleavage is 0.367. Then G6C C48A, with 0.443; and A56C U79G, with 0.997; and G74U C75U, with 0.151.

Regarding G39A C85G, the self-cleavage was found to be 0.523.

In the case of C24G A56U, the self-cleavage worked out at 0.0831.

In the case of G40U G55A, the self-cleavage came to 0.722.

As to A8G U72C, the self-cleavage stood at 0.293. Regarding G40A G54U, the self-cleavage turned out to be 0.971. For U23A C49A the value was 0.538; for C4U C19G, 0.0268; for U12G G29U, 0.0489. Then A45C U60C, with 0.573. Then U65C, with 1.02. Regarding G38C G68C, the self-cleavage was 0.193. For C63A A87C the value was 1; for G68A A78G, 0.727; for C44G G53U, 0.939. For A56U the value was 0.989; for C24U G31C, 0.0615. For G17C C63A the value was 0.306. In the case of G35C A87C, the self-cleavage was found to be 0.0866. For C41U C75U the value was 0.249; for G1C A87U, 0.104. Then A8U U12A, with 0.208. As for G73C G82U, the self-cleavage worked out at 0.0707. For C7A G73A, the self-cleavage was found to be 0.106. Regarding G53C A77C, the self-cleavage amounted to 0.443. With U9A A77U, the self-cleavage is 0.506. Then G40A C85G, with 0.807; and C18G G40A, with 0.175; and C18G G73A, with 0.

Regarding G34C C57A, the self-cleavage is 0.288. With G31A C44A, the self-cleavage is 0.192. For C26A C41A the value was 1.17; for U12C G34U, 0.0396; for A8G C63G, 1.11. Regarding G25A G35U, the self-cleavage amounted to 0.135.

For C21G A45C, the self-cleavage was determined as 0.18. As to U37G C41A, the self-cleavage was determined as 0.

As to C36U C48U, the self-cleavage came to 0.746. For A45U C86G, the self-cleavage came out at 0.795. With G1U G28C, the self-cleavage is 0.185. For C57G G76C the value was 0.895. As for C57G G76U, the self-cleavage was found to be 0.984. For C3G C33A the value was 0.0817. Then G59C C64A, with 0.946; and U27C C49A, with 0.776; and G25A U46G, with 0.262. On to G54U A83G, for which the self-cleavage was determined as 0.956. Then C15G C49A, with 0.519; and C32A G38A, with 0.0665; and G59C C86G, with 1.06. For the variant U27G C85G, the self-cleavage was 1.29. Consider C24A C75A, for which the self-cleavage was 0.219. Then C41G U69G, with 0.755; and U27G G55U, with 1; and C15U C22A, with 0.113. G6U G80A: the self-cleavage was found to be 0.104.

Turning to C48A G81C, the self-cleavage is 0.193. With U23A C48G, the self-cleavage is 0.898. As for C19G C49A, the self-cleavage worked out at 0.0354. Then C36U C58U, with 0.866; and C49A U79G, with 0.665. Then C75A G82A, with 0.151.

In the case of U9A G29U, the self-cleavage is 0.0639. Then C3U G5A, with 0.123; and C49U G55U, with 0.909. Turning to G25U A56U, the self-cleavage is 0.249. For C7A C61U, the self-cleavage worked out at 0.441. Then G10A G81A, with 0.187; and A8C G31A, with 0.162; and A42U C44A, with 0.688. As to C26A U47C, the self-cleavage is 0.646. Then C21A A43C, with 0.116; and C36A C62A, with 0.261; and C14G U27A, with 0.7. For the variant C15G G25U, the self-cleavage stood at 0.0354.

As for G52A G59A, the self-cleavage came to 1.07.

With U46A G73U, the self-cleavage was found to be 0.0811.

As to G40A U79G, the self-cleavage stood at 0.755.

As to U12G G81C, the self-cleavage is 0.665.

In the case of U37A G73C, the self-cleavage was determined as 0.0378. Then C3U G52U, with 0.723. As to G52U A71U, the self-cleavage amounted to 0.781.

For the variant C48U U65G, the self-cleavage was 0.748.

As to U60G C85A, the self-cleavage stood at 0.767. For U9G A87U the value was 0.853; for A16G G40A, 1.13. Then G17C U27A, with 0.222; and G38U A70C, with 0.158; and G40U, with 0.717.

A70U G81C: the self-cleavage was 0.193. Regarding G2A G31U, the self-cleavage came out at 0.0205. C57U G73A: the self-cleavage is 0.891. As to A43U G67U, the self-cleavage is 0.499. For G17A G80U, the self-cleavage stood at 0.198. Then U47G G80A, with 0.242; and C14G A43C, with 0.0504. U20A G76A: the self-cleavage worked out at 0.135.

In the case of C3U G29U, the self-cleavage was found to be 0.0723. As to G59U A83C, the self-cleavage was 0.34.

For the variant G34C C61G, the self-cleavage is 0.231. Turning to A51G A71U, the self-cleavage stood at 0.629. Turning to G38C A45C, the self-cleavage is 0.0678. Consider G25A C36U, for which the self-cleavage is 0.153. For A56C C75A the value was 0.116. As to G17C C48G, the self-cleavage was 0.252.

On to G73U A78U, for which the self-cleavage is 0.119.

G2A G82C: the self-cleavage was determined as 0.0639. For C15G C85A the value was 0.748; for G68U C86A, 0.956. For G17A G34C the value was 0.0594; for U46A A78G, 0.277. For A43G U79C the value was 0.0941; for G52U C86U, 1.02. For G6A G28U, the self-cleavage was 0.0573. Then C24U G82C, with 0.163; and G39C U79C, with 0.125; and G1A C30G, with 0. In the case of C30G G31C, the self-cleavage came out at 0.104. Regarding C7G G34U, the self-cleavage is 0.0504. In the case of G1U A42G, the self-cleavage worked out at 0.403. For C19U G28C the value was 0.0875; for G34A C63U, 0.0656; for A8G G54C, 1.07.
